Reference: US20140057807A1 (UNIVERSITY OF CHICAGO, published 2014)

Target: T1, human serum albumin (human, UniProt P02768 25-609)
T1 construct: also called HSA
Experiment: cradle library selection hit

T1 sequence (P02768 25-609 limits assumed): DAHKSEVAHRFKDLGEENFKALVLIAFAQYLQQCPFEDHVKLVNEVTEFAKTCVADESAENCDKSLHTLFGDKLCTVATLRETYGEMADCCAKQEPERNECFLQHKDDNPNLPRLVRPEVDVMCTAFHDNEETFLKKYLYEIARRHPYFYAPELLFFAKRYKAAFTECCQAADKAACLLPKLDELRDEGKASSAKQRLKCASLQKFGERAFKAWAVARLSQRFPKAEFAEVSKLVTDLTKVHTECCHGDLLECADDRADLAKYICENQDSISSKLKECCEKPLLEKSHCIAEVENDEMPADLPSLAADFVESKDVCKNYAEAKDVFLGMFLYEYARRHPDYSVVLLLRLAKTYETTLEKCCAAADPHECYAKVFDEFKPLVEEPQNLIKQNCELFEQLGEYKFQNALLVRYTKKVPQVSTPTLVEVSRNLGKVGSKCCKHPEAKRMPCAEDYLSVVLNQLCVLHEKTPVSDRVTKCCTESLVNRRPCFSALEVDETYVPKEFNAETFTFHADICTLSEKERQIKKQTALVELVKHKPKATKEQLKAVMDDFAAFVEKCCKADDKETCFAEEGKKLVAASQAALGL

Binder | binding result
SEQ ID NO 245 (designed binder) NVSPPRRARVTDATETTITISWRTKTETITDFGVVASPYLGQGIQRTIKPDVRSYTITGLQPGTAYSIKLHTLHVHDYYPVVIDAST | binds
SEQ ID NO 246 (designed binder) NVSPPRRARVTDATETTITISWRTKTETITYFYVAADPTEDGKIQRTIKPDVRSYTITGLQPGTYYTIHLRTLYYLVAVPVVIDAST | binds
SEQ ID NO 248 (designed binder) NVSPPRRARVTDATETTITISWRTKTETITYFGVGADPAMYIEYPYIQRTIKPDVRSYTITGLQPGTQYGIYLTTLSQASDYPVVIDAST | binds
SEQ ID NO 249 (designed binder) NVSPPRRARVTDATETTITISWRTKTETITYFGVRAYPTYRSSIQRTIKPDVRSYTITGLQPGTLYRISLYTLDSAGYNPVVIDAST | binds
SEQ ID NO 250 (designed binder) NVSPPRRARVTDATETTITISWRTKTETITQFSVYAYPARSKYHIQRTIKPDVRSYTITGLQPGTGYRIYLQTLGGYSDEPVVIDAST | binds
SEQ ID NO 251 (designed binder) NVSPPRRARVTDATETTITISWRTKTETITEFDVGADPGKGHAIQRTIKPDVRSYTITGLQPGTSYLIGLRTLNRVLHYPVVIDAST | binds
SEQ ID NO 252 (designed binder) NVSPPRRARVTDATETTITISWRTKTETITSFRVDAGPGVAGSIQRTIKPDVRSYTITGLQPGTYYQIQLAALAYGYYPVVIDAST | binds
SEQ ID NO 253 (designed binder) NVSPPRRARVTDATETTITISWRTKTETITRFYVSAQPRFYYYNIQRTIKPDVRSYTITGLQPGTDYTIGLYTLGVYMHYPVVIDAST | binds
SEQ ID NO 254 (designed binder) NVSPPRRARVTDATETTITISWRTKTETITYFSVEAYPRWYALIQRTIKPDVRSYTITGLQPGTSYYIYLWTLMMDTSSPVVIDAST | binds
SEQ ID NO 255 (designed binder) NVSPPRRARVTDATETTITISWRTKTETITEFFVMAEPYYGEGYYIQRTIKPDVRSYTITGLQPGTSYSINLYTLKRPYLYPVVIDAST | binds
SEQ ID NO 256 (designed binder) NVSPPRRARVTDATETTITISWRTKTETITSFYVMAQPTNYYGQSTYIQRTIKPDVRSYTITGLQPGTYYGIQLYTLMYRASAPVVIDAST | binds
SEQ ID NO 257 (designed binder) NVSPPRRARVTDATETTITISWRTKTETITTFDVYAYPGYGGSYWSIQRTIKPDVRSYTITGLQPGTSYEIELETLHYSHAYPVVIDAST | binds
SEQ ID NO 258 (designed binder) NVSPPRRARVTDATETTITISWRTKTETITYFSVLAHPLEVSSYSIQRTIKPDVRSYTITGLQPGTGYRIFLSTLRWYYGMPVVIDAST | binds
SEQ ID NO 259 (designed binder) NVSPPRRARVTDATETTITISWRTKTETITYFSVYANPMYPFYIQRTIKPDVRSYTITGLQPGTYYEIYLGTLYYFATYPVVIDAST | binds
SEQ ID NO 260 (designed binder) NVSPPRRARVTDATETTITISWRTKTETITYFYVSAYPYYVAYDIQRTIKPDVRSYTITGLQPGTYYDINLSTLSYSDNSPVVIDAST | binds
SEQ ID NO 261 (designed binder) NVSPPRRARVTDATETTITISWRTKTETITYFKVRAYPAYNYGGWSIQRTIKPDVRSYTITGLQPGTYYSIYLDTLYLGAYWYPVVIDAST | binds
